Bounds are passed on as bounds.

Test [1] has as its target KDEL receptor (KDEL‐R) (mouse (endogenous in DRG neurons)) (UniProt Q99JH8).
Test [2] has the same target. This is another data set of the same source.
Test [3] shares this target. This is another data set of the same source.
The target is the same in test [4]. This is another data set of the same source.
For test [5] the target is unchanged. The source holds these as a separate data set.

UniProt Q99JH8, sequence (Q99JH8 whole entry): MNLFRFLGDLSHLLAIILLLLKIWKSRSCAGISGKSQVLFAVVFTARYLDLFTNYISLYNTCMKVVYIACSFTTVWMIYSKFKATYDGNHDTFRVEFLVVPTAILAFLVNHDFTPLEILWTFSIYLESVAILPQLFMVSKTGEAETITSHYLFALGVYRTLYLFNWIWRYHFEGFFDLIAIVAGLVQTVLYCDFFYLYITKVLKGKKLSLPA

As for “CDNF‐ΔKTEL (CDNF without the last four residues KTEL) (domain or fragment)”, the neurite length of DRG explants after 72 h (Figure 1B) in test [1] came out at 200 μm. The substance also displayed a neurite length in dissociated DRG cell cultures, CDNF-ΔKTEL 18 μg/mL, 3 days (Figure 7B) in test [2] of less than 200 μm. For the same substance, the neuritic area of DRG explants after 72 h, CDNF-ΔKTEL 1.8 and 18 μg/mL (Figure 1C) in test [3] was 2.9e+06 μm^2. Further, in test [4], the neurite length of DRG explants after NGF deprivation, CDNF-ΔKTEL 18 μg/mL for 48 h (Figure 3B) came out at 200 μm. Moreover, the viable cells by LDH release, DRG explants under trophic deprivation, CDNF-ΔKTEL (Figure 3E) in test [5] came out at 61%.

Turning to “cerebral dopamine neurotrophic factor (CDNF) (from UniProt Q49AH0 25-187) (ligand)”, the neurite length of DRG explants after 72 h, CDNF 1.8 and 18 μg/mL (Figure 1B) in test [1] was 600 μm. In addition, the neurite length in dissociated DRG cell cultures, CDNF 18 μg/mL, 3 days (Figure 7B) in test [2] was 390 μm. The substance also displayed a neuritic area of DRG explants after 72 h, CDNF 18 μg/mL (Figure 1C) in test [3] of 5.2e+06 μm^2. In test [4], this substance displayed a neurite length of DRG explants after NGF deprivation, CDNF 18 μg/mL for 48 h (Figure 3B) of 500 μm. In test [5], this substance displayed a viable cells by LDH release, DRG explants under trophic deprivation, CDNF 18 μg/mL (Figure 3E) of 75%.
